Target: VEGF165 (UniProt P15692)
Experiment: ELISA, plate coated with VEGF, anti-human Fc-HRP detection

VEGF165, sequence (P15692 other isoform, or with tags, fused parts or gaps limits assumed): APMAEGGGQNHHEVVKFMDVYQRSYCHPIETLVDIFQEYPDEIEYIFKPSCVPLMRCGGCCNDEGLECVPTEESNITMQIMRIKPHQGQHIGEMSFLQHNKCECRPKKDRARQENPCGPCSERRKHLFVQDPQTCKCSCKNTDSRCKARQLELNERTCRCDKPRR

- Kd: 0.5 pM
Substance: VEGF-trap (aflibercept) (Fc fusion)

— patent US20190375821A1
